The text below walks through data of publication PMC7335806.

The nature of series [1]: in vitro vesicle formation assay, immunoblot. The settings on record: glycan lost; control: Fzd6WT.
The nature of series [2]: immunofluorescence, surface localisation in COS7 cells. The settings on record: glycan lost; control: HA-Fzd6wt.

B1: Frizzled-6 (Fzd6): N38A, N352A (protein)
parent chain: MERSPFLLACILLPLVRGHSLFTCEPITVPRCMKMTYNMTFFPNLMGHYDQGIAAVEMGHFLHLANLECSPNIEMFLCQAFIPTCTEQIHVVLPCRKLCEKIVSDCKKLMDTFGIRWPEELECNRLPHCDDTVPVTSHPHTELSGPQKKSDQVPRDIGFWCPKHLRTSGDQGYRFLGIEQCAPPCPNMYFKSDELDFAKSFIGIVSIFCLCATLFTFLTFLIDVRRFRYPERPIIYYSVCYSIVSLMYFVGFLLGNSTACNKADEKLELGDTVVLGSKNKACSVVFMFLYFFTMAGTVWWVILTITWFLAAGRKWSCEAIEQKAVWFHAVAWGAPGFLTVMLLAMNKVEGDNISGVCFVGLYDLDASRYFVLLPLCLCVFVGLSLLLAGIISLNHVRQVIQHDGRNQEKLKKFMIRIGVFSGLYLVPLVTLLGCYVYELVNRITWEMTWFSDHCHQYRIPCPYQANPKARPELALFMIKYLMTLIVGISAVFWVGSKKTCTEWAGFFKRNRKRDPISESRRVLQESCEFFLKHNSKVKHKKKHGAPGPHRLKVISKSMGTSTGATTNHGTSAMAIADHDYLGQETSTEVHTSPEASVKEGRADRANTPSAKDRDCGESAGPSSKLSGNRNGRESRAGGLKERSNGSEGAPSEGRVSPKSSVPETGLIDCSTSQAASSPEPTSLKGSTSLPVHSASRARKEQGAGSHSDA
Take B1: the localisation_or_trafficking result in series [1] and in series [2] was “decreases” each time.
